Results published in US20250011413A1 (MCMASTER UNIVERSITY, published 2025).
Several values for one entry are separate records, joined by “and”; a condition that tells them apart may be missing. Identical values can stand only once.

Legend:
[1] = biological target: T1, PF4/heparin complex (human PF4 complexed with heparin) (human, UniProt P02776 32-101); experiment: BLI (Octet), biotinylated PF4/heparin on streptavidin sensors, scFv at 1 µg/mL, 1:1 model, mean ± s.d.
T1 construct: Multimeric complex of PF4 with heparin (not a protein); In the EIAs: PF4 captured on biotinylated heparin on streptavidin plates; In the SRA: platelets with 0.2 U/mL heparin; also called PF4 and heparin complexes
T1 sequence: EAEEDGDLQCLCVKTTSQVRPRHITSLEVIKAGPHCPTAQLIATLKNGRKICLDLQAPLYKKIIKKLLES
Protocol: BLI experiments were performed using wildtype scFv, mutant B, mutant C, mutant D, mutant E, and mutant F at 1 μg/mL. Binding was measured against immobilized biotinylated PF4/heparin complexes on streptavidin biosensors. b) Table showing kinetic data of wildtype and mutant scFv, including binding responses and association and dissociation rates. All data was analyzed based on a 1:1 homogenous ligand binding model using Octet®) User Software version 3.1.
(§1) The Octet-QK Red 96 (FortéBio, Menlo Park, CA) instrumentation was used to conduct all BLI experiments. A 96-well microtiter plate (black, flat-bottom) was used to hold 200 μL per well of either sample or buffer. Pre-coated streptavidin biosensor tips (FortéBio) were hydrated in phosphate buffered saline (PBS) containing 1% bovine serum albumin (BSA, Sigma-Aldrich) before performing all kinetic assays. Each step was performed at an operating temperature of 23° C. with agitation at 1000 rpm. Streptavidin tips were first equilibrated in PBS+1% BSA to establish a baseline. […] The PF4-coated tips were then dipped into PBS+1% BSA for 13 minutes to re-establish a baseline. Tips were then incubated in an analyte solution containing half-fold dilutions of wildtype scFv (4.0, 2.0, 1.0, 0.5, 0.25 μg/mL in PBS+1% BSA) for 10 minutes to measure association. For mutant scFv association, tips were incubated in an analyte solution containing 200 μL of each mutant and wildtype scFv at a final concentration of 1 μg/mL in PBS+1% BSA. Antibody dissociation steps were performed by dipping sensors in wells containing PBS+1% BSA for 56 minutes. The following negative controls included in these kinetic experiments were also measured: 200 μL of buffer to replace both the antigen and scFv and 200 μL buffer replacing scFv only. Each experiment was performed with PF4 or with PF4/heparin as the immobilized antigen.
BLI experiments were performed to evaluate binding responses and affinities of wildtype and mutant scFv. Biotinylated PF4 alone or complexed with heparin was immobilized on streptavidin biosensors and used to capture wildtype scFv.

[2] = biological target: T1, PF4/heparin complex (human PF4 …); experiment: competition EIA, scFv 50 µg/mL; competitor HIT-negative sera antibodies, n=10
Protocol: (§2) Inhibitory PF4/heparin IgG-specific Streptavidin Enzyme Immunoassay (EIA). The binding activity of wildtype and mutant scFv antibodies to PF4/heparin complexes was measured using an inhibitory PF4/heparin IgG-specific EIA with a streptavidin-biotin capture system. Before performing this protocol, 96-well NUNC Maxisorp plates (ThermoFisher) were coated with 10 μg/mL streptavidin for 24 h. Plates were then blocked with 3% bovine serum albumin (BSA) in phosphate buffered saline (PBS) for 2 h at room temperature. Plates were then coated with 1 U/mL biotinylated-heparin for 1 h followed by 30 μg/mL PF4 for 1 h. Increasing concentrations of wildtype or mutant scFv were added and incubated for 1 hr at room temperature. Without removing wildtype or scFv, HIT patient sera in a 1:50 dilution or full-length KKO (2 μg/mL) was then incubated for 1 h at room temperature. After washing, alkaline phosphatase-conjugated anti-human or anti-mouse IgG (Jackson Immuno Research Laboratories, Inc., West Grove, PA) was added at a 1:4000 dilution and incubated for 1 h temperature. For detection, 1 mg/mL p-nitrophenylphosphate (PNPP, Sigma-Aldrich) substrate dissolved in 1 mol/L diethanolamine (DEA) buffer (pH 9.6) was added. The optical density (OD) was measured at 2 min intervals for 30 min at 405 nm (OD₄₀₅ₙₘ) using a BioTek 800 TS plate reader (BioTek Instruments Inc., Winooski, VT) to determine if anti-PF4/heparin antibody binding was inhibited. Results were reported as a decrease in OD (absorbance at 405 nm) from baseline levels.
Sera (n=10) from confirmed HIT-negative patients (EIA-positive/SRA-negative) containing anti-PF4/heparin antibodies were then used in the same EIA with scFv constructs to determine if antibody binding was decreased in this cohort (Table 5).

[3] = biological target: T1, PF4/heparin complex (human PF4 …); experiment: as above; remark: listed apart in the source
[4] = biological target: T1, PF4/heparin complex (human PF4 …); experiment: cell-based or functional assay
[5] = biological target: T1, PF4/heparin complex (human PF4 …); experiment: BLI (Octet), biotinylated PF4/heparin on streptavidin sensors, scFv 1 µg/mL
Protocol: as §1
(§3) BLI experiments were performed to evaluate binding responses and affinities of wildtype and mutant scFv. Biotinylated PF4 alone or complexed with heparin was immobilized on streptavidin biosensors and used to capture wildtype scFv. Half-fold serial dilutions of wildtype scFv ranging from 0.25 μg/mL to 4 μg/mL were used to determine the optimal concentrations for future experiments PF4 (PF4 FIG. 3; PF4/heparin FIG. 4).

[6] = biological target: T1, PF4/heparin complex (human PF4 …); experiment: BLI (Octet), biotinylated PF4/heparin on streptavidin sensors, scFv 1 µg/mL, 1:1 model
Protocol: as §1, §3

[7] = biological target: T1, PF4/heparin complex (human PF4 …); experiment: competition EIA on PF4/biotinylated heparin, scFv 0-160 µg/mL; competitor full-length KKO 2 µg/mL
Protocol: as §2
To further evaluate the binding of mutant and wildtype scFv, their ability to inhibit full-length KKO from binding PF4/heparin complexes was assessed in a modified streptavidin-capture EIA. Biotinylated heparin was immobilized with PF4 on streptavidin-coated plates and incubated with KKO in the presence of scFv at half-fold serial dilutions from 0 to 160 μg/mL. […] Wildtype scFv and mutant C were unable to inhibit full-length KKO binding at these concentrations and IC50 values for these constructs were not calculated.

B1: Wildtype scFv (KKO-derived single chain variable fragment) (scFv)
scFv: DIQMIQSQKFMSTSVGDRVTVTCKASQNVGTNVAWYQQKPGQSPNALIYSASYRYSGVPDRFTGSGSGTDFTLTITNVQSEDLADYFCQQYNSYPLTFGTGTKLDLKGGGGSGGGGSGGGGSVQLQQSGAELVKPGASVKLSCKASGYTFTNYFIYWVKQRPGQGLEWIGEINPRNGDTDFNEKFESRATLTVDKSSSTAYMQLSSLTSEDSAIYYCTRSPYGNNYGFTYWGQGTLVTVSA
notes: VL-(G4S)3 linker-VH; expressed in E. coli BL21 from pADL-22c, purified on Ni-NTA as histidine-tagged scFv, about 28 kDa; also called WT; KKO-scFv; not shown: histidine tag from the pADL-22c vector
[1]
  koff: 0.000519 s⁻¹
  kon: 96700 M⁻¹ s⁻¹
[2]
  mean OD405nm of bound serum IgG (+ scFv): 1.41 OD405nm
[3]
  mean % inhibition of serum antibody binding: -38.3%
[4]
  % inhibition of 14C-serotonin release (SRA), HIT-Positive Patient #1 serum, scFv 50 µg/mL: 15.6%
  % inhibition of 14C-serotonin release (SRA), HIT-Positive Patient #1 serum, scFv 75 µg/mL: 17.8%
  % inhibition of 14C-serotonin release (SRA), HIT-Positive Patient #2 serum, scFv 50 µg/mL: 37.2%
  % inhibition of 14C-serotonin release (SRA), HIT-Positive Patient #2 serum, scFv 75 µg/mL: 15.4%
  % inhibition of 14C-serotonin release (SRA), HIT-Positive Patient #3 serum, scFv 50 µg/mL: 4.8%
  % inhibition of 14C-serotonin release (SRA), HIT-Positive Patient #3 serum, scFv 75 µg/mL: 12%
  % inhibition of 14C-serotonin release (SRA), HIT-Positive Patient #4 serum, scFv 50 µg/mL: 6.7%
  % inhibition of 14C-serotonin release (SRA), HIT-Positive Patient #4 serum, scFv 75 µg/mL: 4.4%
  % inhibition of 14C-serotonin release (SRA), HIT-Positive Patient #5 serum, scFv 50 µg/mL: -6.9%
  % inhibition of 14C-serotonin release (SRA), HIT-Positive Patient #5 serum, scFv 75 µg/mL: 20.8%
[5]
  average binding response (wavelength shift): 0.0758 nm
[6]
  Kd: 5.38 nM

B2: Mutant D scFv, scFv(Y156H) (scFv)
scFv: DIQMIQSQKFMSTSVGDRVTVTCKASQNVGTNVAWYQQKPGQSPNALIYSASYRYSGVPDRFTGSGSGTDFTLTITNVQSEDLADYFCQQYNSYPLTFGTGTKLDLKGGGGSGGGGSGGGGSVQLQQSGAELVKPGASVKLSCKASGYTFTNYFIHWVKQRPGQGLEWIGEINPRNGDTDFNEKFESRATLTVDKSSSTAYMQLSSLTSEDSAIYYCTRSPYGNNYGFTYWGQGTLVTVSA
notes: VL-linker-VH; histidine-tagged, from E. coli BL21; also called Mut D; not shown: histidine tag from the pADL-22c vector
[1]
  koff: 3.47e-05 s⁻¹
  kon: 12900 M⁻¹ s⁻¹
[2]
  mean OD405nm of bound serum IgG (+ scFv): 1 OD405nm
[3]
  mean % inhibition of serum antibody binding: -17.3%
[4]
  % inhibition of 14C-serotonin release (SRA), HIT-Positive Patient #1 serum, scFv 50 µg/mL: 42.2%
  % inhibition of 14C-serotonin release (SRA), HIT-Positive Patient #1 serum, scFv 75 µg/mL: 94.4%
  % inhibition of 14C-serotonin release (SRA), HIT-Positive Patient #2 serum, scFv 50 µg/mL: 12.8%
  % inhibition of 14C-serotonin release (SRA), HIT-Positive Patient #2 serum, scFv 75 µg/mL: 16.7%
  % inhibition of 14C-serotonin release (SRA), HIT-Positive Patient #3 serum, scFv 50 µg/mL: 10.8%
  % inhibition of 14C-serotonin release (SRA), HIT-Positive Patient #3 serum, scFv 75 µg/mL: 36.1%
  % inhibition of 14C-serotonin release (SRA), HIT-Positive Patient #4 serum, scFv 50 µg/mL: 20%
  % inhibition of 14C-serotonin release (SRA), HIT-Positive Patient #4 serum, scFv 75 µg/mL: 38.9%
  % inhibition of 14C-serotonin release (SRA), HIT-Positive Patient #5 serum, scFv 50 µg/mL: 69.4%
  % inhibition of 14C-serotonin release (SRA), HIT-Positive Patient #5 serum, scFv 75 µg/mL: 87.5%
[5]
  average binding response (wavelength shift): 0.133 nm
  fold higher binding response than wildtype scFv: ≥ 3 fold
[6]
  Kd: 3.77 nM
  fold stronger affinity than wildtype scFv: 100 fold
[7]
  IC50: 111 nM and 3.1 µg/mL

B3: Mutant B scFv, scFv(R18K, N152K, D180N) (scFv)
scFv: DIQMIQSQKFMSTSVGDKVTVTCKASQNVGTNVAWYQQKPGQSPNALIYSASYRYSGVPDRFTGSGSGTDFTLTITNVQSEDLADYFCQQYNSYPLTFGTGTKLDLKGGGGSGGGGSGGGGSVQLQQSGAELVKPGASVKLSCKASGYTFTKYFIYWVKQRPGQGLEWIGEINPRNGDTNFNEKFESRATLTVDKSSSTAYMQLSSLTSEDSAIYYCTRSPYGNNYGFTYWGQGTLVTVSA
notes: VL-linker-VH; histidine-tagged, from E. coli BL21; also called Mut B; not shown: histidine tag from the pADL-22c vector
[1]
  koff: 3.91e-05 s⁻¹
  kon: 27600 M⁻¹ s⁻¹
[2]
  mean OD405nm of bound serum IgG (+ scFv): 1.1 OD405nm
[3]
  mean % inhibition of serum antibody binding: -31.4%
[4]
  % inhibition of 14C-serotonin release (SRA), HIT-Positive Patient #1 serum, scFv 50 µg/mL: 71.1%
  % inhibition of 14C-serotonin release (SRA), HIT-Positive Patient #1 serum, scFv 75 µg/mL: 97.8%
  % inhibition of 14C-serotonin release (SRA), HIT-Positive Patient #2 serum, scFv 50 µg/mL: 71.8%
  % inhibition of 14C-serotonin release (SRA), HIT-Positive Patient #2 serum, scFv 75 µg/mL: 19.2%
  % inhibition of 14C-serotonin release (SRA), HIT-Positive Patient #3 serum, scFv 50 µg/mL: 6%
  % inhibition of 14C-serotonin release (SRA), HIT-Positive Patient #3 serum, scFv 75 µg/mL: 14.5%
  % inhibition of 14C-serotonin release (SRA), HIT-Positive Patient #4 serum, scFv 50 µg/mL: 7.8%
  % inhibition of 14C-serotonin release (SRA), HIT-Positive Patient #4 serum, scFv 75 µg/mL: 58.9%
  % inhibition of 14C-serotonin release (SRA), HIT-Positive Patient #5 serum, scFv 50 µg/mL: 90.3%
  % inhibition of 14C-serotonin release (SRA), HIT-Positive Patient #5 serum, scFv 75 µg/mL: 80.6%
[5]
  average binding response (wavelength shift): 0.379 nm
  fold increase of binding response against wildtype scFv: 4 fold
[6]
  Kd: 1.36 nM
  fold change of KD against wildtype scFv: 100 fold
[7]
  IC50: 57.3 nM and 1.6 µg/mL
